From US20250051460A1 (Boehringer Ingelheim, published 2025)
Several values for one entry are separate records, joined by “and”; a condition that tells them apart may be missing. Equal values may be shown once. Read-outs that look alike come from different tables or passages of the source.

B1: TPP-14938 (bispecific antibody, human IgG1, kappa, L234A L235A)
heavy: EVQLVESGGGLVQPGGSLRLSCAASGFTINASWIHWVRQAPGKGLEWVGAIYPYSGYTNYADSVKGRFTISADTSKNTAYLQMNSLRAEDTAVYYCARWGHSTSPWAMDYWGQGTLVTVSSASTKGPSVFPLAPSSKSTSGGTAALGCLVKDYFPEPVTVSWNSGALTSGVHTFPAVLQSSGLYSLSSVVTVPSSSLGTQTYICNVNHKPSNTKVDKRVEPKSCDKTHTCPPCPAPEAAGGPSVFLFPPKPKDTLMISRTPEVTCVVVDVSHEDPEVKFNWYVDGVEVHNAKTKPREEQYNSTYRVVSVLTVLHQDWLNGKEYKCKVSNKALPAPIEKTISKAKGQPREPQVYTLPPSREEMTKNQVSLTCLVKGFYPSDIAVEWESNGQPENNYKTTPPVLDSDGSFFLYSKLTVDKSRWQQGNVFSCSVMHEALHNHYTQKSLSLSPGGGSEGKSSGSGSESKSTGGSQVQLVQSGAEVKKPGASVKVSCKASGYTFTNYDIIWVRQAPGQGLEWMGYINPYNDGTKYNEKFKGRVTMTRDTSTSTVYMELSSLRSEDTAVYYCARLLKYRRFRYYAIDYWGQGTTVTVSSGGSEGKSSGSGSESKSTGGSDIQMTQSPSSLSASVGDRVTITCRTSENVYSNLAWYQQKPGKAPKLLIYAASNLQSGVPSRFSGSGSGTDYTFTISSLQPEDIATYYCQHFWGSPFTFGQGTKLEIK
light: DIQMTQSPSSLSASVGDRVTITCRASQVIRRSLAWYQQKPGKAPKLLIYAASNLASGVPSRFSGSGSGTDFTLTISSLQPEDFATYYCQQSNTSPLTFGQGTKVEIKRTVAAPSVFIFPPSDEQLKSGTASVVCLLNNFYPREAKVQWKVDNALQSGNSQESVTEQDSKDSTYSLSSTLTLSKADYEKHKVYACEVTHQGLSSPVTKSFNRGEC
B2: TPP-14939 (bispecific antibody, human IgG1, kappa, L234A L235A)
heavy: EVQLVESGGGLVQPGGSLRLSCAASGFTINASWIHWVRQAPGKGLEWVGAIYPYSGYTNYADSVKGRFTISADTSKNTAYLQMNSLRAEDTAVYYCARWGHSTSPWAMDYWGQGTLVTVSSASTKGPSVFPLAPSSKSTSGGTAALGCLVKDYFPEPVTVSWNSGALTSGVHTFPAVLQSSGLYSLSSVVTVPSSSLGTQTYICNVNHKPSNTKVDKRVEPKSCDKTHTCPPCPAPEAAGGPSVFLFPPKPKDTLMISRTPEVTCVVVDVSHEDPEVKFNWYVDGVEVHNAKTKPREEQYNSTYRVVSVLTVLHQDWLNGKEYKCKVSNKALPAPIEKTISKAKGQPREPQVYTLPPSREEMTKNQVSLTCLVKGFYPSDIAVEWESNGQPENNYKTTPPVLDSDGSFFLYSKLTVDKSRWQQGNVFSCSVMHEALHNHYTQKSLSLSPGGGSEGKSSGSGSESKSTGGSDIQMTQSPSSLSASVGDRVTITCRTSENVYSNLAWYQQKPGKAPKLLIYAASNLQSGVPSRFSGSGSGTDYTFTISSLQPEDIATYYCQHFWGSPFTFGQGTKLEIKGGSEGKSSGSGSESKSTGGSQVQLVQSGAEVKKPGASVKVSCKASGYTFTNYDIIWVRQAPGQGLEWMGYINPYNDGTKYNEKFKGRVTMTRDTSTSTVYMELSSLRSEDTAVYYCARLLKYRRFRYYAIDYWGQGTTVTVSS
light: B1 light
B3: TPP-14937 (bispecific antibody, human IgG1, kappa, L234A L235A)
heavy: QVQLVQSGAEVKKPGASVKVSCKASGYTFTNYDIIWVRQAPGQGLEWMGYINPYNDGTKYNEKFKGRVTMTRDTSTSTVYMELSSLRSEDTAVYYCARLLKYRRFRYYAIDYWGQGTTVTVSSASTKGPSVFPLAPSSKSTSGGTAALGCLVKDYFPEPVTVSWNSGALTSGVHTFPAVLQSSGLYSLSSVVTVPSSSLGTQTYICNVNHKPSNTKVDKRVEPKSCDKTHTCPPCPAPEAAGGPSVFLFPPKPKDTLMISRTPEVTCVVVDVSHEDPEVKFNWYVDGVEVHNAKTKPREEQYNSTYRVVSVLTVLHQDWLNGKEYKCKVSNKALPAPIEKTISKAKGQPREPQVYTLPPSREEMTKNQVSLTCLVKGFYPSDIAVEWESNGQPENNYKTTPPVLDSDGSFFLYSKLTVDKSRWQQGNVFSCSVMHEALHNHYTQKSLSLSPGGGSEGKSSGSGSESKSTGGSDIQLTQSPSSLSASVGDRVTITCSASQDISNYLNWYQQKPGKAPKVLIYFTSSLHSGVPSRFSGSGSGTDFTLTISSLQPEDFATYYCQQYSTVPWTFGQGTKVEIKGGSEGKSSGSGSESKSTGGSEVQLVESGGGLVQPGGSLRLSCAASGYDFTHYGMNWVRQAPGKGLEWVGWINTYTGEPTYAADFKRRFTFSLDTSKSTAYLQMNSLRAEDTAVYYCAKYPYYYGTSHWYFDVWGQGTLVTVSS
light: DIQMTQSPSSLSASVGDRVTITCRTSENVYSNLAWYQQKPGKAPKLLIYAASNLQSGVPSRFSGSGSGTDYTFTISSLQPEDIATYYCQHFWGSPFTFGQGTKLEIKRTVAAPSVFIFPPSDEQLKSGTASVVCLLNNFYPREAKVQWKVDNALQSGNSQESVTEQDSKDSTYSLSSTLTLSKADYEKHKVYACEVTHQGLSSPVTKSFNRGEC
B4: TPP-11736 (bispecific antibody, human IgG1, kappa, L234A L235A)
heavy: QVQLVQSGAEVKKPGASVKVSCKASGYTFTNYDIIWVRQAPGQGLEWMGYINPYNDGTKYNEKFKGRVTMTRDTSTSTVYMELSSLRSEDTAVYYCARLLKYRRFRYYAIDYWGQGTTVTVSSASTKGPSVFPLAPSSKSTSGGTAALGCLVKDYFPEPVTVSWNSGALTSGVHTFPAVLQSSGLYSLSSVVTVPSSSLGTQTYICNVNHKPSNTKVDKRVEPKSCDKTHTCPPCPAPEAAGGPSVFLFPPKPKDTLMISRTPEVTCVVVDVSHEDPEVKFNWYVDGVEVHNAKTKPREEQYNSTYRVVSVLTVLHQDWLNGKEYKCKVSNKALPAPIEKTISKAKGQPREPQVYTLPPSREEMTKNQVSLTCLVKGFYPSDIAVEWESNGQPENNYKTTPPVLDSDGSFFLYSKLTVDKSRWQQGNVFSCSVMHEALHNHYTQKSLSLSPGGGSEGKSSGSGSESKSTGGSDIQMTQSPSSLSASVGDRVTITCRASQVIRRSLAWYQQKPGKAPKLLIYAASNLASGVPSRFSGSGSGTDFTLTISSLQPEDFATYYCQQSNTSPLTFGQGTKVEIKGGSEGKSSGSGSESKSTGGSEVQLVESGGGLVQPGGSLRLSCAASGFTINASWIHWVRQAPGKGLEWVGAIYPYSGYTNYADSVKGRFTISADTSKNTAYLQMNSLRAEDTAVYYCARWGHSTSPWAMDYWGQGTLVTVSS
light: B3 light
B5: TPP-11738 (bispecific antibody, human IgG1, kappa, L234A L235A)
heavy: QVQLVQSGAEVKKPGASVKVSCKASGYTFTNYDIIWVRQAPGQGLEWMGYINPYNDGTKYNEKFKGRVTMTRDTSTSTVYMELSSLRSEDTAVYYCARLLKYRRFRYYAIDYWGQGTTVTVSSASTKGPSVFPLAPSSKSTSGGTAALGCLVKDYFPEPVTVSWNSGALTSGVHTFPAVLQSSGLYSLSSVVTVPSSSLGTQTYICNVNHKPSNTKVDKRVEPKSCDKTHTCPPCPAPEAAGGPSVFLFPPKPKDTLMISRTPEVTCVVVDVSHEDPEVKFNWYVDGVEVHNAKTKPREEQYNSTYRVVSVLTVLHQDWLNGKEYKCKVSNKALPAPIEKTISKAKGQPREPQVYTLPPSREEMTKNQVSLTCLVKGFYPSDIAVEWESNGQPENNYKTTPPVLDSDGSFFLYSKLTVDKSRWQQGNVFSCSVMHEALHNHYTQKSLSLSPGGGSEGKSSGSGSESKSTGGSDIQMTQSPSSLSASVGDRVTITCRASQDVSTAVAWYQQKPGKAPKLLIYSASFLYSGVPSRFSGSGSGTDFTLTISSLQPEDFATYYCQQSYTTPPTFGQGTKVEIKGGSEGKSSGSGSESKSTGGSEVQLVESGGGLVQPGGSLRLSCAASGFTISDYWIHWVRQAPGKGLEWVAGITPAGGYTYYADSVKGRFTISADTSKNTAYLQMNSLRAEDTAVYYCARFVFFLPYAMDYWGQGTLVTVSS
light: B3 light
B6: TPP-14936 (bispecific antibody, human IgG1, kappa, L234A L235A)
heavy: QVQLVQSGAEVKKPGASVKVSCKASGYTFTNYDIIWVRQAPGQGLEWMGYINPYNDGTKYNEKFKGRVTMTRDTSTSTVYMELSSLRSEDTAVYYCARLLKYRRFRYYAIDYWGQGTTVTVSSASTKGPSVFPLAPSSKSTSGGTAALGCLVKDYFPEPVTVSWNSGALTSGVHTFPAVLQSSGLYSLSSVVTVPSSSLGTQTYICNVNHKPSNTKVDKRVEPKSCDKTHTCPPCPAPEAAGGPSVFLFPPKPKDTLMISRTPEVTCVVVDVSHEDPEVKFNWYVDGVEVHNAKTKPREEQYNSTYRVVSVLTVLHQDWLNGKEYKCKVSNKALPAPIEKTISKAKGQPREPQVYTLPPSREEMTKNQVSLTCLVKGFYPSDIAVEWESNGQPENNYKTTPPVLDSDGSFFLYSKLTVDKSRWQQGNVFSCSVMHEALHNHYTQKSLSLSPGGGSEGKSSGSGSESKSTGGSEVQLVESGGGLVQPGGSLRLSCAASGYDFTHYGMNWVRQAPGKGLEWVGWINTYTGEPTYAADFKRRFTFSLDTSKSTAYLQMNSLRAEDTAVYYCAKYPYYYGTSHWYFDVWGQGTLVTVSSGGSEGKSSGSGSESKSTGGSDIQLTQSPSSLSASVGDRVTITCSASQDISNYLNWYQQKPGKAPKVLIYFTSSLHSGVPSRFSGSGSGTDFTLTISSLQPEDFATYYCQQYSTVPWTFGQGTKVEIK
light: B3 light

What was measured:
Experiment in all cases: cell-based or functional assay
human VEGF-A [1] = target: T1, human VEGF-A (human, UniProt P15692-4 27-191)
human VEGF-A [2] = target: T1, human VEGF-A; remark: listed apart in the source
human VEGF-A [3] = target: T1, human VEGF-A; remark: listed apart in the source
human VEGF-A [4] = target: T1, human VEGF-A; remark: listed apart in the source
human VEGF-A [5] = target: T1, human VEGF-A; remark: listed apart in the source
human VEGF-A [6] = target: T1, human VEGF-A; remark: listed apart in the source

T1 sequence (P15692 other isoform, or with tags, fused parts or gaps limits assumed): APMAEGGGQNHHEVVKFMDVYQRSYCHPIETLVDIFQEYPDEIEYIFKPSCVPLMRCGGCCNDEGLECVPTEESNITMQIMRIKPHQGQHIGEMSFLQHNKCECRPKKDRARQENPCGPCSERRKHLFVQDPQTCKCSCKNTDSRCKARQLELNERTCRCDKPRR

Binder	Bottom plateau (ERK1/2 phosphorylation, counts) (human VEGF-A [1]) [counts]	Bottom plateau (Src phosphorylation, counts) (human VEGF-A [1]) [counts]	IC50 (ERK1/2 phosphorylation) (human VEGF-A [1]) [nM]	IC50 (Src phosphorylation) (human VEGF-A [1]) [nM]	Bottom plateau (ERK1/2 phosphorylation, counts) (human VEGF-A [2]) [counts]	Bottom plateau (Src phosphorylation, counts) (human VEGF-A [2]) [counts]	IC50 (ERK1/2 phosphorylation) (human VEGF-A [2]) [nM]	IC50 (Src phosphorylation) (human VEGF-A [2]) [nM]	concentration for full inhibition of VEGF-induced HRMEC proliferation (human VEGF-A [3]) [nM]	Bottom plateau (ERK1/2 phosphorylation, counts) (human VEGF-A [4]) [counts]	Bottom plateau (Src phosphorylation, counts) (human VEGF-A [4]) [counts]	IC50 (ERK1/2 phosphorylation) (human VEGF-A [4]) [nM]	IC50 (Src phosphorylation) (human VEGF-A [4]) [nM]	Bottom plateau (ERK1/2 phosphorylation, counts) (human VEGF-A [5]) [counts]	Bottom plateau (Src phosphorylation, counts) (human VEGF-A [5]) [counts]	IC50 (ERK1/2 phosphorylation) (human VEGF-A [5]) [nM]	IC50 (Src phosphorylation) (human VEGF-A [5]) [nM]	IC50 (ERK1/2 phosphorylation) (human VEGF-A [3])	other results
B1	1330	5480	2.71	1.8	1330	5480	2.71	1.8											
B2	1140	5540	2.51	1.16	1140	5540	2.51	1.16											
B3									4	-927	4570	5.6	5.8	-926	4570	5.58	5.83		
B4	3690	6300	5.59	3.97	3690	6300	5.59	3.97		3690	6300	5.6	4	3690	6300	5.59	3.97	~4 nM and ~10 nM	IC50 (ERK1/2 phosphorylation) (human VEGF-A [6]): 9.1 nM; IC50 (p38 MAPK phosphorylation) (human VEGF-A [6]): 7.7 nM; IC50 (p38 MAPK phosphorylation) (human VEGF-A [3]): ~7.4 nM
B5																		~4 nM and ~10 nM	
B6									1	-341	4650	3.5	3.4	-340	4650	3.49	3.4		
